{"source": "paper PMC9513909", "about": "“Genomic distribution and context dependent functionality of novel WRKY transcription factor binding sites”", "binders": {"B1": {"name": "S1 (dsDNA)", "DNA 1": "CACATTTACATTGCGACTTTTCTTGCATGCCGTC", "DNA 2": "GACGGCATGCAAGAAAAGTCGCAATGTAAATGTG"}, "B2": {"name": "S1mut1 (dsDNA)", "DNA 1": "CACATTTACATTGCAGTCCCTCTTGCATGCCGTC", "DNA 2": "GACGGCATGCAAGAGGGACTGCAATGTAAATGTG"}, "B3": {"name": "S2 (dsDNA)", "DNA 1": "ATCGTCTAAGAGACGACTTTTCTCGTAACTTTAT", "DNA 2": "ATAAAGTTACGAGAAAAGTCGTCTCTTAGACGAT"}, "B4": {"name": "S2mut1 (dsDNA)", "DNA 1": "ATCGTCTAAGAGACAGTCCCTCTCGTAACTTTAT", "DNA 2": "ATAAAGTTACGAGAGGGACTGTCTCTTAGACGAT"}}, "key": {"[1]": {"target": "T1, WRKY50BD (Arabidopsis thaliana, UniProt Q8VWQ5 86-173)", "T1 sequence (Q8VWQ5 86-173)": "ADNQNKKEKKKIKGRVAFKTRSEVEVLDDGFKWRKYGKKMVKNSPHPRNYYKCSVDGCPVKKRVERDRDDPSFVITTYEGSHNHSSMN", "experiment": "EMSA; shift abolished or strongly reduced by 4000-fold unlabelled S1; EMSA with 3' biotin-labelled probes (LightShift kit detection); buffer, salt, pH and temperature not given (earlier protocols cited)", "conditions": "protein: recombinant; label: 3' biotin (probe)"}, "[2]": {"target": "T2, WRKY70 (Arabidopsis thaliana, UniProt Q9LY00 1-294)", "T2 sequence": "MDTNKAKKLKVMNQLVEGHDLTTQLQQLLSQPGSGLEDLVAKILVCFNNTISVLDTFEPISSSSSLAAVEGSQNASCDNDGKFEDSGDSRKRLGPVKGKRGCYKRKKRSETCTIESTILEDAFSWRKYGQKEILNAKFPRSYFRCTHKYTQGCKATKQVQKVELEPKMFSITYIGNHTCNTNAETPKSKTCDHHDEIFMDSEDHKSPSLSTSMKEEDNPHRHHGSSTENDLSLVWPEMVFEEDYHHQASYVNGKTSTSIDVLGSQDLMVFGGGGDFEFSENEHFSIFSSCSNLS", "experiment": "EMSA; EMSA with 3' biotin-labelled probes (LightShift kit detection); buffer, salt, pH and temperature not given (earlier protocols cited)", "conditions": "protein: recombinant; label: 3' biotin (probe)"}, "[3]": {"target": "T1, WRKY50BD", "experiment": "competition; 4000-fold excess against labelled S1; EMSA with 3' biotin-labelled probes (LightShift kit detection); buffer, salt, pH and temperature not given (earlier protocols cited)", "conditions": "protein: recombinant; label: unlabelled"}, "[4]": {"target": "T2, WRKY70", "experiment": "EMSA; shift abolished or strongly reduced by 4000-fold unlabelled S2; EMSA with 3' biotin-labelled probes (LightShift kit detection); buffer, salt, pH and temperature not given (earlier protocols cited)", "conditions": "protein: recombinant; label: 3' biotin (probe)"}, "[5]": {"target": "T1, WRKY50BD", "experiment": "EMSA; shift abolished or strongly reduced by 4000-fold unlabelled S2; EMSA with 3' biotin-labelled probes (LightShift kit detection); buffer, salt, pH and temperature not given (earlier protocols cited)", "conditions": "protein: recombinant; label: 3' biotin (probe)"}, "[6]": {"target": "T2, WRKY70", "experiment": "competition; 4000-fold excess against labelled S2; EMSA with 3' biotin-labelled probes (LightShift kit detection); buffer, salt, pH and temperature not given (earlier protocols cited)", "conditions": "protein: recombinant; label: unlabelled"}, "[7]": {"target": "T1, WRKY50BD", "experiment": "competition; 4000-fold excess against labelled S2; EMSA with 3' biotin-labelled probes (LightShift kit detection); buffer, salt, pH and temperature not given (earlier protocols cited)", "conditions": "protein: recombinant; label: unlabelled"}}}
{"binder": "B1", "values": [{"measurement": "binding result", "setting": "[1]", "result": "binds"}, {"measurement": "binding result", "setting": "[2]", "result": "no binding"}]}
{"binder": "B2", "values": [{"measurement": "binding result", "setting": "[3]", "result": "no binding"}]}
{"binder": "B3", "values": [{"measurement": "binding result", "setting": "[4]", "result": "binds"}, {"measurement": "binding result", "setting": "[5]", "result": "binds"}]}
{"binder": "B4", "values": [{"measurement": "binding result", "setting": "[6]", "result": "no binding"}, {"measurement": "binding result", "setting": "[7]", "result": "no binding"}]}
